In patent publication US20150132859A1:

What was measured:
[1] = target: EcSS-TpN17-Bi(DDS) (Treponema pallidum (TpN17 part); E. coli (SlyD part)); test: DAGS ECL; detection PmSS-TpN17-Ru; EcSkp-VcLp15 0 ug/ml in R1
[2] = target: EcSS-TpN17-Bi(DDS) (Treponema pallidum (TpN17 part); E. coli (SlyD part)); test: DAGS ECL; detection PmSS-TpN17-Ru; EcSlyD-VcLp15 0 ug/ml in R1
[3] = target: EcFkpA-TpN17-Bi(DDS) (Treponema pallidum (TpN17 part); E. coli (FkpA part)); test: DAGS ECL; detection EcSkp-TpN17-Ru; EcSkp-VcLp15 0 ug/ml in R1
[4] = target: EcFkpA-TpN17-Bi(DDS) (Treponema pallidum (TpN17 part); E. coli (FkpA part)); test: DAGS ECL; detection EcSkp-TpN17-Ru; EcSlyD-VcLp15 0 ug/ml in R1
[5] = target: EcSS-TpN17-Bi(DDS) (Treponema pallidum (TpN17 part); E. coli (SlyD part)); test: DAGS ECL; detection PmSS-TpN17-Ru; competitor EcSkp-VcLp15 0.1 ug/ml in R1
[6] = target: EcSS-TpN17-Bi(DDS) (Treponema pallidum (TpN17 part); E. coli (SlyD part)); test: DAGS ECL; detection PmSS-TpN17-Ru; competitor EcSkp-VcLp15 1.0 ug/ml in R1
[7] = target: EcSS-TpN17-Bi(DDS) (Treponema pallidum (TpN17 part); E. coli (SlyD part)); test: DAGS ECL; detection PmSS-TpN17-Ru; competitor EcSlyD-VcLp15 0.1 ug/ml in R1
[8] = target: EcSS-TpN17-Bi(DDS) (Treponema pallidum (TpN17 part); E. coli (SlyD part)); test: DAGS ECL; detection PmSS-TpN17-Ru; competitor EcSlyD-VcLp15 0.2 ug/ml in R1
[9] = target: EcSS-TpN17-Bi(DDS) (Treponema pallidum (TpN17 part); E. coli (SlyD part)); test: DAGS ECL; detection PmSS-TpN17-Ru; competitor EcSlyD-VcLp15 0.3 ug/ml in R1
[10] = target: EcSS-TpN17-Bi(DDS) (Treponema pallidum (TpN17 part); E. coli (SlyD part)); test: DAGS ECL; detection PmSS-TpN17-Ru; competitor EcSlyD-VcLp15 0.5 ug/ml in R1
[11] = target: EcSS-TpN17-Bi(DDS) (Treponema pallidum (TpN17 part); E. coli (SlyD part)); test: DAGS ECL; detection PmSS-TpN17-Ru; competitor EcSlyD-VcLp15 1.0 ug/ml in R1
[12] = target: EcFkpA-TpN17-Bi(DDS) (Treponema pallidum (TpN17 part); E. coli (FkpA part)); test: DAGS ECL; detection EcSkp-TpN17-Ru; competitor EcSkp-VcLp15 0.1 ug/ml in R1
[13] = target: EcFkpA-TpN17-Bi(DDS) (Treponema pallidum (TpN17 part); E. coli (FkpA part)); test: DAGS ECL; detection EcSkp-TpN17-Ru; competitor EcSkp-VcLp15 1.0 ug/ml in R1
[14] = target: EcFkpA-TpN17-Bi(DDS) (Treponema pallidum (TpN17 part); E. coli (FkpA part)); test: DAGS ECL; detection EcSkp-TpN17-Ru; competitor EcSlyD-VcLp15 0.1 ug/ml in R1
[15] = target: EcFkpA-TpN17-Bi(DDS) (Treponema pallidum (TpN17 part); E. coli (FkpA part)); test: DAGS ECL; detection EcSkp-TpN17-Ru; competitor EcSlyD-VcLp15 0.2 ug/ml in R1
[16] = target: EcFkpA-TpN17-Bi(DDS) (Treponema pallidum (TpN17 part); E. coli (FkpA part)); test: DAGS ECL; detection EcSkp-TpN17-Ru; competitor EcSlyD-VcLp15 0.3 ug/ml in R1
[17] = target: EcFkpA-TpN17-Bi(DDS) (Treponema pallidum (TpN17 part); E. coli (FkpA part)); test: DAGS ECL; detection EcSkp-TpN17-Ru; competitor EcSlyD-VcLp15 0.5 ug/ml in R1
[18] = target: EcFkpA-TpN17-Bi(DDS) (Treponema pallidum (TpN17 part); E. coli (FkpA part)); test: DAGS ECL; detection EcSkp-TpN17-Ru; competitor EcSlyD-VcLp15 1.0 ug/ml in R1

Row | Substance | counts [1] | counts [2] | counts [3] | counts [4] | counts [5] | counts [6] | counts [7] | counts [8] | counts [9] | counts [10] | counts [11] | counts [12] | counts [13] | counts [14] | counts [15] | counts [16] | counts [17] | counts [18]
1 | Trina #0642 | 673 counts | 657 counts | 750 counts | 778 counts | 673 counts | 632 counts | 613 counts | 638 counts | 626 counts | 623 counts | 610 counts | 757 counts | 744 counts | 716 counts | 722 counts | 698 counts | 698 counts | 661 counts
2 | Trina #0646 | 651 counts | 634 counts | 840 counts | 797 counts | 659 counts | 646 counts | 617 counts | 634 counts | 628 counts | 621 counts | 613 counts | 847 counts | 815 counts | 795 counts | 817 counts | 802 counts | 784 counts | 784 counts
3 | Trina #0647 | – | 623 counts | – | 774 counts | – | – | 614 counts | 606 counts | 620 counts | 618 counts | 623 counts | – | – | 786 counts | 764 counts | 773 counts | 762 counts | 742 counts
